According to US20100015126A1, “Methods of Binding of Cross-Beta Structures By Chaperones” (priority 2006, published 2010):

molecular target: T1, recombinant human HSP90beta (Homo sapiens, UniProt P08238); test: ELISA: binding of HSP90 to immobilized (misfolded) protein ligands; conditions: 5 mM DTT in binding buffer
T1 construct: purchased Dr. S. Rüdiger, Cellular Protein Chemistry, Utrecht University
Protocol: Recombinant human HSP90beta was bought from Dr. S. Rüdiger (Cellular Protein Chemistry, Department of Chemistry, Faculty of Science, Utrecht University). HSP90beta eluted from an anion exchange column was supplied in 35 mM Bis-Tris/25mM Tris, 5 mM DTT, approximately 385 mM NaCl, approximately pH 9.0. The HSP90beta concentration was 5.0 μM (450 μg/ml with a MW of 90.000 Da; extinction coefficient of 53740 l/(mol*cm)). The supplied frozen stock is kept at −80° C. Before use, the stock is quickly thawed almost completely in a 37° C. water bath, and kept at wet ice. Before use, the HSP90beta solution is centrifuged for 5 minutes at 16,000*g at 4° C. During dilution of HSP90beta solution, 5 mM DTT should be incorporated in the dilution buffer, to keep free Cys residues. Thawed HSP90beta was aliquoted and snap frozen in liquid nitrogen before re-storage at −80° C.
Binding of chaperones to immobilized (misfolded) protein ligands was determined using an enzyme linked immuno sorbent assay (ELISA) approach. For this purpose 50 μl/well of potential ligands at indicated concentrations or coat buffer only for control and background measurement purposes, were coated overnight at 4° C. or coated for 1 h at room temperature, with motion, in 50 mM NaHCO3 pH 9.6 (coat buffer). In general, ligands were coated at 5 μg/ml, unless stated otherwise. For example, BiP binding peptides 6BB# and oxLDL were coated at 50 μg/ml. Native haemoglobin (Sigma-Aldrich, H7379), albumin, IgIV Gammagard and ovalbumin controls were prepared from lyophilized stocks. The controls were prepared by dissolving lyophilized proteins at 1 mg/ml in PBS upon resuspending by pipetting, followed by a 30 minutes period at the roller device, at room temperature. The protein solutions were centrifuged for 10 minutes at 16,000*g and diluted in coat buffer. After coating the plates were washed at least three times with 50 mM Tris-HCl pH 7.3, 150 mM NaCl, 0.1% v/v Tween20, and blocked with Blocking reagent (Roche Diagnostics, Almere, The Netherlands; 11112589001), for 1 h at room temperature, with motion. Plates were washed three times and incubated in triplicate with indicated chaperone dilution series, at 50 μl/well, for 1 h at room temperature, with constant motion. For HSP90, 5 mM DTT is incorporated in the binding buffer (PBS/0.1% Tween20) to avoid unwanted disulfide bond formation of the HSP90. Plates were washed three times and incubated with anti-FLAG antibody (mouse antibody, M2, peroxidase conjugate; Sigma, A-8592) for BiP-FLAG-His, anti-His-tag antibody (Mouse Monoclonal Antibody, Cat. No. 70796, Novagen [0.2 mg/ml]) for HSP60, a 1:1 mix of 500-fold diluted anti-HSP90beta antibodies (Stressgen, SPA-643 [mouse monoclonal IgM], SPA-646 [rabbit polyclonal]) for HSP90 and an anti-DnaK antibody (Stressgen, 023SPA-880D [mouse monoclonal antibody]) for DnaK. After four wash cycles, secondary antibodies were added to the wells when required, 50 μl/well, for 45′ at room temperature, with motion. RAMPO and SWARPO were used at 3000 times dilution. […] In a second experiment with more immobilized misfolded proteins and controls, the detection of bound HSP90 with the mix of two anti-HSP90 antibodies was achieved by mixing 1:1500 SWARPO with 1:3000 RAMPO. After 5 washes with wash buffer followed by two washes with PBS, binding of antibodies was assessed. […] Plates were read at 450 nm. Triplicates were averaged and standard deviations calculated. […]

T1 sequence (P08238 whole entry): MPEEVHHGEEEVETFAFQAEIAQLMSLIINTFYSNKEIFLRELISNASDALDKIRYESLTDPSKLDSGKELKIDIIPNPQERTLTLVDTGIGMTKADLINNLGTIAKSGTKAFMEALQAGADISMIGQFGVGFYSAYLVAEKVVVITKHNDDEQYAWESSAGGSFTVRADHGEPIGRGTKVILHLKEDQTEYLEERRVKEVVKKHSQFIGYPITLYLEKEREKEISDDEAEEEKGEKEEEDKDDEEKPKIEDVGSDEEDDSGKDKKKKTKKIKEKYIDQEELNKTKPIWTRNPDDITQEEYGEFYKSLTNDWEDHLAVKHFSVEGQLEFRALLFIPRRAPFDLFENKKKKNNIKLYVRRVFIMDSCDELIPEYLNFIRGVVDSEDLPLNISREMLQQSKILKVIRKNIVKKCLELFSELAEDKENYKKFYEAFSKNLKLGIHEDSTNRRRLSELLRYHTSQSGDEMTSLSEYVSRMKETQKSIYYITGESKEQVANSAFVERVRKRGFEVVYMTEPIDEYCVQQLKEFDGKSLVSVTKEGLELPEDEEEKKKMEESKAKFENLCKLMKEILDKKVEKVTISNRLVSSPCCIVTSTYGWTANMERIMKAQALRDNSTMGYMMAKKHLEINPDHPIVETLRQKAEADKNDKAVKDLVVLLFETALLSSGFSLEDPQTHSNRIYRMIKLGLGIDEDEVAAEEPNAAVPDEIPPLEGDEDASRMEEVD

Substance	Binding of concentration series of HSP90 to coated ligand
AGEYYAAL [6BB7]	little binding
GSNKGAIIGLM [6BB6, Human Aβ (25-35)]	has been established
Hb: non-modified human haemoglobin control	did not bind
HbAGE: human haemoglobin glycated with glucose-6-phosphate for 75 weeks	has been established
KLVFFAE [6BB12, Human Aβ16-22]	did not bind

molecular target: T2, human BiP (Homo sapiens, UniProt P11021); test: ELISA: inhibition of BiP binding to crossbeta structure with tPA; conditions: threefold diluted supernatant; 10 mM ε-amino caproic acid; no competitor
T2 construct: The human BiP gene except the signal peptide encoding region was obtained from Geneart (Germany); linker […]; made in house; host or cells: HEK 293E cells, transient transfection, PABC674 vector; secreted into the medium
From the text: The threefold diluted cell supernatants were applied to the ELISA plate in duplicates and BiP binding was subsequently measured as described above. Coat efficiency was checked with specific anti-AGE antibody, anti-albumin antibody and anti-Hb antibody.

T2 sequence (P11021 19-654): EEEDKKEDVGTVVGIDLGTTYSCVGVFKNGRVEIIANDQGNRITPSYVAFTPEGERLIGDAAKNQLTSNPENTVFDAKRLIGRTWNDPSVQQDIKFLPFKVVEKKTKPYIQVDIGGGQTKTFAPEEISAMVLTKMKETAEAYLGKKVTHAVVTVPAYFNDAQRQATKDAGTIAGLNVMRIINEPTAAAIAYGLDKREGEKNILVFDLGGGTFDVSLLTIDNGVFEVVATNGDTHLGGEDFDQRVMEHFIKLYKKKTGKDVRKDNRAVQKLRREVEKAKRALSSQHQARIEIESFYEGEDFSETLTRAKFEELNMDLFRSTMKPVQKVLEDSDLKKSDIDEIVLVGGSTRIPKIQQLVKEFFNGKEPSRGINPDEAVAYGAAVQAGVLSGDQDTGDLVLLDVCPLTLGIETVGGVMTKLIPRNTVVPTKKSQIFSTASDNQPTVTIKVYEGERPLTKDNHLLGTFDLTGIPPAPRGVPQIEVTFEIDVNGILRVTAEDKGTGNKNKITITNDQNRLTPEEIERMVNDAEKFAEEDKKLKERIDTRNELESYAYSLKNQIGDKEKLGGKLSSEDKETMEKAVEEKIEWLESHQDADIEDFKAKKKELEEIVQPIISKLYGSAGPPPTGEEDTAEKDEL

Substance	Binding of BiP to coated ligand
BSA-AGE	binds
Hb: non-modified human haemoglobin control	some binding
native BSA: non-modified bovine serum albumin control	hardly
